IntAct's records for PubMed 24115911

B1: Urease accessory protein UreF (Helicobacter pylori), Q09065 (parent)
chain: MDKGKSVKSTEKSVGMPPKTPKTDNNAHVDNEFLILQVNDAVFPIGSYTHSFGLETYIQQKKVTNKESALEYLKANLSSQFLYTEMLSLKLTYESALQQDLKKILGVEEVIMLSTSPMELRLANQKLGNRFIKTLQAMNELDMGEFFNAYAQKTKDPTHATSYGVFAASLGIELKKALRHYLYAQTSNMVINCVKSVPLSQNDGQKILLSLQSPFNQLIEKTLELDESHLCTASVQNDIKAMQHESLYSRLYMS

Variants of: B1
Conditions: with ureg_helpy ureG

| Variant | effect of a mutation on the interaction |
| --- | --- |
| MDKGKSVKSTEKSVGMPPKTPKTDNNAHVDNEFLILQVNDAVFPIGSYTHSFGLETYIQQKKVTNKESALEYLKANLSSQFLYTEMLSLKLTYESALQQDLKKILGVEEVIMLSTSPMELRLANQKLGNRFIKTLQAMNELDMGEFFNAYAQKTKDPTHATSYGVFAASLGIELKKALAHYLDAQTSNMVINCVKSVPLSQNDGQKILLSLQSPFNQLIEKTLELDESHLCTASVQNDIKAMQHESLYSRLYMS [R179A;Y183D] | disrupting interaction strength |
